Among the data in the Human Domainome abundance scans (Beltran et al. 2025) are abundance fitness values, retold here.

B1: Transcription factor SOX-4, residues 60 to 127; numbered along this chain, Q06945 (parent)
chain: KRPMNAFMVWSQIERRKIMEQSPDMHNAEISKRLGKRWKLLKDSDKIPFIREAERLRLKHMADYPDYK

± gives the uncertainty stated by the source.

This data set covers variants of B1. Description: abundance fitness (aPCA) (normalised: wild type 0, dead -1); higher = more abundant; growth selection in yeast, the domain comes from the species named. The note with it: Homo sapiens.
R16I: the abundance fitness was -0.216 ± 0.053.
The figure for P65E is -0.025 ± 0.076.
Consider P65D, for which the abundance fitness is 0.103 ± 0.18.
Turning to P65Q, the abundance fitness turned out to be 0.042 ± 0.063.
The figure for P65G is -0.059 ± 0.09; for P65S it is 0.102 ± 0.062; for P65T it is -0.064 ± 0.075.
Next, P65I: -0.333 ± 0.15.
For the variant P65R, the abundance fitness was -0.174 ± 0.056.
Turning to Q21K, the abundance fitness is -0.204 ± 0.088.
Q21A: the abundance fitness is -0.169 ± 0.065.
With Q21P, the abundance fitness is -0.874 ± 0.15.
The figure for Q21W is -0.884 ± 0.17; for Q21C it is -0.581 ± 0.17; for L41E it is -0.849 ± 0.16.
Take L41F: the abundance fitness is -0.684 ± 0.2.
Take L41W: the abundance fitness is -0.946 ± 0.14.
For L41P, the abundance fitness is -0.728 ± 0.21.
Next, A62V: -0.123 ± 0.037; A62Y: -0.104 ± 0.052.
For the variant A62C, the abundance fitness is -0.15 ± 0.049.
Turning to A62P, the abundance fitness was -0.157 ± 0.067.
For the variant A62I, the abundance fitness was -0.163 ± 0.064.
For A62G, the abundance fitness was -0.017 ± 0.038.
Turning to A62W, the abundance fitness was -0.249 ± 0.054.
Consider A62S, for which the abundance fitness is -0.021 ± 0.037.
P3F: the abundance fitness is -0.186 ± 0.056.
Take P3S: the abundance fitness was -0.122 ± 0.041.
The figure for P3G is -0.166 ± 0.036; for P3E it is 0.072 ± 0.074; for P3V it is -0.136 ± 0.049.
As for R37A, the abundance fitness was determined as 0.133 ± 0.053.
As to R37T, the abundance fitness is -0.05 ± 0.089.
For R37H, the abundance fitness is -0.313 ± 0.25.
On to R37D, for which the abundance fitness is -0.035 ± 0.091.
Consider R37Q, for which the abundance fitness was -0.093 ± 0.21.
As for I47Y, the abundance fitness is -0.224 ± 0.054.
Next, I47M: -0.047 ± 0.05.
The figure for I47C is -0.546 ± 0.062; for I47E it is 0.095 ± 0.059.
As to I18W, the abundance fitness was -0.787 ± 0.082.
In the case of I18H, the abundance fitness is -0.627 ± 0.2.
Regarding I18E, the abundance fitness is -0.63 ± 0.12.
I18F: the abundance fitness is -0.351 ± 0.15.
Take I18A: the abundance fitness was -0.484 ± 0.21.
Turning to E29C, the abundance fitness was -0.394 ± 0.2.
With E29M, the abundance fitness is -0.225 ± 0.12.
In the case of E29H, the abundance fitness was -0.879 ± 0.46.
Consider E29R, for which the abundance fitness is -0.883 ± 0.1.
As for E29W, the abundance fitness was -0.84 ± 0.18.
Turning to S44C, the abundance fitness is -0.472 ± 0.13.
On to S44F, for which the abundance fitness is -0.442 ± 0.13.
Next, S44T: -0.134 ± 0.12.
Take W10E: the abundance fitness was -0.964 ± 0.28.
Next, W10S: -0.893 ± 0.14.
Regarding W10V, the abundance fitness is -0.621 ± 0.1.
Turning to W10T, the abundance fitness is -0.958 ± 0.24.
The figure for W10M is -1.08 ± 0.34; for W10F it is -0.155 ± 0.12; for I13C it is -0.29 ± 0.17.
As for I13T, the abundance fitness was -0.235 ± 0.095.
The figure for I13Q is -0.12 ± 0.095; for I13E it is -0.163 ± 0.1.
Take I13R: the abundance fitness is -0.401 ± 0.062.
On to I13Y, for which the abundance fitness was -0.456 ± 0.14.
M4H: the abundance fitness was -0.589 ± 0.14.
The figure for M4F is -0.033 ± 0.11; for M4P it is 0.002 ± 0.073; for M4L it is -0.105 ± 0.053.
Next, S31C: -0.027 ± 0.049.
The figure for S31P is -0.733 ± 0.11; for S31F it is -0.212 ± 0.043.
Consider S31I, for which the abundance fitness is -0.054 ± 0.061.
The figure for S31G is -0.189 ± 0.03; for S31V it is -0.021 ± 0.034; for S31M it is 0.072 ± 0.043.
D63W: the abundance fitness was -0.179 ± 0.061.
As to D63Y, the abundance fitness was -0.233 ± 0.057.
As for D63V, the abundance fitness is -0.224 ± 0.038.
Take D63T: the abundance fitness is -0.104 ± 0.041.
For the variant D63H, the abundance fitness is -0.168 ± 0.057.
With G35P, the abundance fitness was -0.496 ± 0.13.
As for G35L, the abundance fitness was 0.168 ± 0.041.
Regarding G35C, the abundance fitness was 0.095 ± 0.045.
In the case of G35V, the abundance fitness turned out to be 0.134 ± 0.037.
As to S22R, the abundance fitness was -0.211 ± 0.038.
S22M: the abundance fitness is -0.276 ± 0.055.
Consider S22A, for which the abundance fitness is -0.074 ± 0.082.
Consider S22D, for which the abundance fitness is -0.034 ± 0.05.
Next, S22Y: 0.066 ± 0.054; S22V: -0.272 ± 0.042; K32R: -0.054 ± 0.036.
The figure for K32L is -0.08 ± 0.031.
In the case of K32V, the abundance fitness is -0.116 ± 0.035.
Take K32Y: the abundance fitness was -0.062 ± 0.053.
With K32S, the abundance fitness was -0.067 ± 0.04.
K32I: the abundance fitness was -0.225 ± 0.063.
For K36E, the abundance fitness was 0.325 ± 0.071.
In the case of K36G, the abundance fitness was -0.416 ± 0.08.
K36F: the abundance fitness was -0.053 ± 0.13.
Next, K36I: 0.143 ± 0.36; K36R: -0.075 ± 0.061; K36H: -0.141 ± 0.15.
Consider Q12Y, for which the abundance fitness was -0.343 ± 0.17.
Q12P: the abundance fitness was -0.812 ± 0.15.
For Q12R, the abundance fitness was -0.267 ± 0.042.
Next, Q12V: -0.434 ± 0.092.
For the variant Q12G, the abundance fitness is -0.265 ± 0.05.
In the case of Q12H, the abundance fitness is -0.116 ± 0.23.
Next, D24G: -0.123 ± 0.042; D24E: -0.052 ± 0.051.
In the case of D24M, the abundance fitness is -0.214 ± 0.057.
For E20G, the abundance fitness was -0.343 ± 0.11.
In the case of E20S, the abundance fitness was -0.497 ± 0.12.
On to E20T, for which the abundance fitness was -0.296 ± 0.073.
Next, E20P: -0.524 ± 0.12.
The figure for E20A is -0.265 ± 0.098.
Take E20C: the abundance fitness is -0.478 ± 0.19.
S11D: the abundance fitness was -0.758 ± 0.085.
With S11R, the abundance fitness is -0.63 ± 0.058.
Take S11I: the abundance fitness was -0.737 ± 0.079.
The figure for A28W is -0.242 ± 0.062.
On to A28R, for which the abundance fitness is -0.132 ± 0.052.
On to A28D, for which the abundance fitness is -0.152 ± 0.12.
For the variant A28V, the abundance fitness is -0.169 ± 0.063.
With A28G, the abundance fitness was -0.166 ± 0.054.
On to A28K, for which the abundance fitness is -0.099 ± 0.086.
Take D66Y: the abundance fitness was -0.537 ± 0.26.
Consider D66E, for which the abundance fitness was 0.102 ± 0.085.
Take D66C: the abundance fitness was -0.422 ± 0.1.
With D66G, the abundance fitness is -0.08 ± 0.07.
The figure for D66W is -0.325 ± 0.13; for D66L it is -0.152 ± 0.06.
Regarding K46R, the abundance fitness is -0.237 ± 0.04.
Regarding K46A, the abundance fitness was -0.937 ± 0.13.
The figure for K46Y is -1 ± 0.13; for R33A it is 0.121 ± 0.078; for R33Y it is -0.218 ± 0.16.
Next, R33D: 0.483 ± 0.36.
Regarding R33G, the abundance fitness is -0.283 ± 0.064.
Next, R33E: 0.316 ± 0.067; R33K: 0.048 ± 0.13; H60E: 0.053 ± 0.072.
The figure for H60D is 0.005 ± 0.075; for H60I it is -0.408 ± 0.2; for H60L it is -0.186 ± 0.052.
As for H60M, the abundance fitness is -0.092 ± 0.073.
H60F: the abundance fitness was -0.193 ± 0.21.
Regarding L58Q, the abundance fitness was determined as 0.046 ± 0.12.
In the case of L58K, the abundance fitness was -0.07 ± 0.046.
With L58Y, the abundance fitness is -0.286 ± 0.043.
Regarding L58H, the abundance fitness was -0.018 ± 0.062.
Turning to L58V, the abundance fitness is -0.046 ± 0.039.
With L58S, the abundance fitness was -0.011 ± 0.034.
Next, N27W: -0.019 ± 0.057; N27M: -0.043 ± 0.054; N27Y: -0.179 ± 0.052.
On to N27I, for which the abundance fitness was -0.192 ± 0.054.
Take N27S: the abundance fitness worked out at 0.07 ± 0.049.
N27L: the abundance fitness is -0.162 ± 0.038.
For N27P, the abundance fitness was 0.184 ± 0.076.
Turning to N5L, the abundance fitness is -0.589 ± 0.095.
On to N5T, for which the abundance fitness is 0.095 ± 0.047.
Next, N5R: -0.879 ± 0.19; N5P: -0.546 ± 0.11.
For N5K, the abundance fitness was -0.553 ± 0.11.
N5S: the abundance fitness is 0.016 ± 0.065.
